Results from patent US20130035289A1, “PHARMACEUTICAL COMPOSITION FOR TREATMENT OF THROMBOSIS-RELATED DISEASES COMPRISING A FRAGMENT OF PROLACTIN (PRL)-GROWTH HORMONE (GH)-PLACENTAL LACTOGEN (PL)-FAMILY PROTEIN” (UNIVERSITE DE LIEGE, priority 2010, published 2013).
Blank lines part the entries; values can stand above or below the molecule they belong to.

Tests used:
endothelial cells = test: Endothelial cell adhesion assay on vitronectin; format: cell-based, bovine; settings: for increase of cell adhesion: absence of PAI-1 (si-RNA); for pro-adhesion effect: recombinant wild type PAI-1 added to culture medium
Excerpt: ID NO: 35); PAI-1 […] ID NO: 36).

uPA = test: Immunoprecipitation with uPA in presence or absence of PAI-1; format: binding
Description: Western blot analysis of 16K PRL and 14K GH after their immunoprecipitation with uPA in the presence or in the absence of PAI-1. r14K GH and r16K PRL: recombinant proteins controls loaded on gels, no IP performed. (b) HUVEC were incubated with 14K GH or 16K PRL for 2 hours and then subjected to immunofluorescence analysis for uPA and 14K GH or 16K PRL Labellings appears in white for uPA (left panels), 14K GH or 16K PRL (middle panels).

PAI-1 [1] = target: T1, PAI-1 (Mus musculus, UniProt P22777); test: Co-immunoprecipitation with anti-PAI-1 antibody and Western blot, mouse PAI-1; format: binding; settings: for interaction with PAI-1 in plasma samples: mouse plasma
T1 construct: from tissue; host or cells: BalbC Njrj mice, in vivo (blood)
T1 sequence (P22777 23-402): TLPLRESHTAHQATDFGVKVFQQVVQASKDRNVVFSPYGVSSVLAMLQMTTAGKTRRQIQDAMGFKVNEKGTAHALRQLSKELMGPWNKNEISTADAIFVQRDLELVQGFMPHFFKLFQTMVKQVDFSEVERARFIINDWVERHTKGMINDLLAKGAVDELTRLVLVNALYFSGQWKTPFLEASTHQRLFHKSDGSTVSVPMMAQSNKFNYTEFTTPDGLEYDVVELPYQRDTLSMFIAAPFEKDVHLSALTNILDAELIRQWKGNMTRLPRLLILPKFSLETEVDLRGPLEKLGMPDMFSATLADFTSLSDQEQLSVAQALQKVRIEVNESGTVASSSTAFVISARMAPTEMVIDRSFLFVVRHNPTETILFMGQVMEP
Description: (§1) The interaction was further confirmed by pull-down affinity assays. For the immunoprecipitation 4 μg of recombinant 16K hPRL or 14 hGH were mixed with 3 μg of recombinant wt PAI-1, 500 μl of conditioned media from HUVEC cells, 300 μl of human plasma or 100 μl of mouse plasma. The mixtures were incubated for 10 min at 37° C. 6 μg of mouse monoclonal antibody against PAI-1 (clone 33H1F7, recognize human and mouse PAI-1) was added to each tube and incubated overnight at 4° C. under rotation. For the experiments with mice expressing 16K hPRL, 300 μl of plasma from mice injected with Null-Ad or 16K-Ad adenovirus were collected 5 days after virus injection, and immunoprecipitation was performed as described above with same PAI-1 monoclonal antibody (33H1F7). Fifty microliters of protein A agarose was added to the mix and incubated overnight at 4° C. under rotation. After centrifugation for 1 min at 6000 rpm the supernatants were discarded and the pellets (containing the beads) were washed 5 times with PBS. After a new centrifugation, the beads were resuspended in 30 μl 1×β-mercaptoethanol loading buffer and boiled at 100° C. for 5 min, then left on ice for 5 min. The beads were centrifuged for 5 min at 4° C., then the supernatants were subjected to SDS-PAGE (12% acrylamide) for Western blot analysis.
(§2) For Western Blot Analysis cytoplasmic cell lysate, samples of different CoIP and mouse plasma were separated by SDS-PAGE (12% and 10%) and transferred to a polyvinylidene fluoride membrane (Milipore Corp., Bedford, Mass.). Blots were blocked overnight with 5% milk in Tris-buffered saline with 0.1% Tween 20 and probed for 1 h at RT with primary antibodies: rabbit polyclonal anti-hPRL (DAKO) or rabbit polyclonal anti hGH (home made). After three washes with Tris-buffered saline containing 0.1% Tween 20, antigen-antibody complexes were detected with peroxidase-conjugated goat anti-rabbit secondary antibody and an enhanced fluoro-chemiluminescent system (ECL-plus; Amersham Biosciences, Arlington Heights, Ill.).

PAI-1 [2] = target: T2, PAI-1 (Homo sapiens, UniProt P05121); test: In vitro clot lysis assay in pooled normal human plasma with added PAI-1 and tPA; format: biochemical; settings: 3 μM protein, recombinant PAI-1, tPA
T2 construct: gift of Pr; P. Declerck
T2 sequence (P05121 24-402): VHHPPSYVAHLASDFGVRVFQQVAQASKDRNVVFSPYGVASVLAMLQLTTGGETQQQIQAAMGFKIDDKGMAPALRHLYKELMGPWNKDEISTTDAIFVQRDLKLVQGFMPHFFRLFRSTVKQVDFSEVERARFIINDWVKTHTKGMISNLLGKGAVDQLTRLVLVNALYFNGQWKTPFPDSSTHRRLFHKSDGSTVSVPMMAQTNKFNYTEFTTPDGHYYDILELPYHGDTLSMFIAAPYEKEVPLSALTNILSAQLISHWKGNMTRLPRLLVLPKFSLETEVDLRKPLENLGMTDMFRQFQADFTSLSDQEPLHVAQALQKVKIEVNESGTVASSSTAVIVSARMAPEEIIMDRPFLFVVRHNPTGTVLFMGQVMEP
Description: Clot lysis was performed as follows: pooled normal plasma were used in citrated tube. Recombinant wild type PAI-1 was incubated in the presence or in the absence of 16K hPRL (3 μM), 14K hGH (3 μM) or different peptides (25 μM) for 10 min at 37° C., before to be added to diluted plasma in tris tween buffer (75 μl of plasma in 200 μl of 10 mM TRIS pH 7.5, 0.01% tween 20), followed by a second incubation for 10 min at 37° C. tPA was added to each tube at the end to reach a final volume of […]. Aliquots from each tube (80 μl) were added in duplicate to 96 wells, each containing 20 μl CaCl2 to give the following final concentration per well of 10 mM. Clot formation and dissolution were monitored at RT measuring turbidity at 405 nm in 5 min intervals.

ABAE cells = test: Endothelial cell migration (wound assay); format: cell-based, bovine; settings: for anti-migratory function: down-regulation of PAI-1 expression by si-RNA
Description: A layer of confluent ABAE cells in a 48-well tissue culture dish coated with 0.2% gelatin was wounded with a head of 200-μl tips. The experiment was performed in the presence of 50 ng/ml VEGF and 10 ng/ml bFGF. […] ID NO: 35); PAI-1 […] ID NO: 36).

PAI-1 [3] = target: T2, PAI-1; test: Co-immunoprecipitation with anti-PAI-1 antibody and Western blot, human PAI-1; format: binding; settings: for complex with recombinant wild type PAI-1 (co-immunoprecipitation): 10 min at 37° C.; for complex with endogenous PAI-1 from HUVEC culture medium: conditioned medium of HUVEC; for interaction with PAI-1 in plasma samples: human plasma
Description: as §1, §2

PAI-1/tPA complex = target: T3, PAI-1/tPA complex (Homo sapiens, UniProt P05121); test: Complex formation between PAI-1 and tPA by SDS-PAGE (silver staining); format: biochemical; settings: PAI-1 pre-incubated 10 min at 37° C. with 16K hPRL (5 μg) or 14K hGH (4 μg), then tPA
T3 construct: purchased Calbiochem (tPA); PAI-1 a gift of Pr; P. Declerck
T3 sequence (P05121 24-402, one chain of several): as the sequence (P05121 24-402) above
Description: tPA/PAI-1 complex was formed 10 min after their incubation at 37° C. Pre-incubation of PAI-1 (4 μg) with 16K hPRL (5 μg) or 14K hGH (4 μg) during 10 min at 37° C., followed by a second 10 min incubation with tPA (2 μg) was stopped by the addition of sample buffer containing 5% β-Mercaptoethanol. Samples are heated at 95° C. before being analysed by SDS-PAGE. Silver staining was performed on the gel to visualize protein bands and complexes.

[4] = absence of PAI-1, data not shown
[5] = PAI-1 si-RNA transfected cells plus added human PAI-1
[6] = recombinant wild type PAI-1 added to culture medium

interaction with PAI-1 in plasma samples (PAI-1 [1]): interaction was also demonstrated | clot lysis in human plasmas (PAI-1 [2]): increased significantly | complex with recombinant wild type PAI-1 (co-immunoprecipitation) (PAI-1 [3]): 14K GH/PAI-1 | complex with endogenous PAI-1 from HUVEC culture medium (PAI-1 [3]): able to form a complex | interaction with PAI-1 in plasma samples (PAI-1 [3]): interaction was also demonstrated | PAI-1/tPA complex formation (PAI-1/tPA complex): completely abolished
B1: 14K hGH: 14K N-terminal fragment of human growth hormone, recombinant, produced and purified from E. coli (protein)
chain: MFPTIPLSRLFDNAMLRAHRLHQLAFDTYQEFEEAYIPKEQKYSFLQNPQTSLSFSESIPTPSNREETQQKSNLELLRISLLLIQSWLEPVQFLRSVFANSLVYGASDSNVYDLLKDLEEGIQTLMGRLEDGSP
increase of cell adhesion (endothelial cells): not seen | pro-adhesion effect (endothelial cells): reduced significantly | complex with uPA (immunoprecipitation) (uPA; [4]): does not form complex | complex with uPA (immunoprecipitation) (uPA; in the presence of PAI-1): uPA/PAI-1/14K GH complexes | anti-migratory effect (ABAE cells; [5]): restored | anti-migratory function (ABAE cells): reduced significantly | anti-migratory effect (ABAE cells; [6]): reduced significantly

B2: 16K hPRL: 16K N-terminal human prolactin fragment, recombinant, produced and purified from E. coli (protein)
chain: LPICPGGAARCQVTLRDLFDRAVVLSHYIHNLSSEMFSEFDKRYTHGRGFITKAINSCHTSSLATPEDKEQAQQMNQKDFLSLIVSILRSWNEPLYHLVTEVRGMQEAPEAILSKAVEIEEQTKRLLEGMELIVSQVHP
increase of cell adhesion (endothelial cells): not seen | pro-adhesion effect (endothelial cells): reduced significantly | complex with uPA (immunoprecipitation) (uPA; [4]): does not form complex | complex with uPA (immunoprecipitation) (uPA; in the presence of PAI-1): formation of uPA/PAI-1/16K PRL | interaction with PAI-1 in plasma samples (PAI-1 [1]): interaction was also demonstrated | complex with endogenous murine PAI-1 in circulation (PAI-1 [1]; plasma of wild type mice 5 days after 16K-Ad injection): complex formation | clot lysis in human plasmas (PAI-1 [2]): increased significantly | anti-migratory effect (ABAE cells; [5]): restored | anti-migratory function (ABAE cells): reduced significantly | anti-migratory effect (ABAE cells; [6]): reduced significantly | complex with recombinant wild type PAI-1 (co-immunoprecipitation) (PAI-1 [3]): formation of 16K PRL/PAI-1 | complex with endogenous PAI-1 from HUVEC culture medium (PAI-1 [3]): able to form a complex | interaction with PAI-1 in plasma samples (PAI-1 [3]): interaction was also demonstrated | PAI-1/tPA complex formation (PAI-1/tPA complex): partially inhibit
